The record followed here is PMC6752053 (Cell, 2019).

This data set concerns the molecule itself. The data set can be described thus: X-ray diffraction of polymer pellets.

B1: His6-Pbp1_LC (C-terminal low-complexity region of Pbp1, a.a.570-722) (domain or fragment, S. cerevisiae, UniProt P53297 570-722, looked up)
chain: NSMGNAVPGMNPAMGMNMGGMMGFPMGGPSASPNPMMNGFAAGSMGMYMPFQPQPMFYHPSMPQMMPVMGSNGAEEGGGNISPHVPAGFMAAGPGAPMGAFGYPGGIPFQGMMGSGPSGMPANGSAMHSHGHSRNYHQTSHHGHHNSSTSGHK
With B1, the binding result is reported as “binds”.
